Paper PMC12795676, “Integrin α5β1 mediates the inhibitory effects of vasoinhibin on angiogenesis and vascular permeability [image fx1.gif]” (The Journal of Biological Chemistry, 2025)
Values belong to the binder of their own block, whether it stands above or below them. No end group written: not given here.

Key:
Details in all cases: both partners purified
[1] = molecular target: T1, recombinant human integrin α5β1 (human, UniProt P08648 42-995; P05556 21-728); test: SPR; B-Vi45-51 (100 nM) immobilised on a streptavidin SA chip (Biacore 1K); integrin α5β1 injected at 30 μl/min, 60 s association/dissociation; HBS-P, 150 mM NaCl, 1 mM MnCl2, pH 7.4; 1:1 model (legend: steady-state)
T1 construct: integrin α5 subunit, human, recombinant; integrin β1 subunit, human, recombinant; No catalogue number is printed; also called α5β1 integrin; source: bought: Bio-Techne

[2] = molecular target: plasminogen activator inhibitor-1 (PAI-1), immobilised on ELISA plates (UniProt P05121 24-402); test: ELISA; plates coated with 2 μg/mL integrin α5β1, PAI-1 or PAI-1-uPA complex; incubated with B-Vi45-51 or Vi (dose-dependent) or 100 nM Vi mutants; horseradish peroxidase antibodies and TMB
[3] = molecular target: T2, PAI-1-uPA complex, immobilised on ELISA plates (UniProt P05121 24-402; P00749 21-431); test: as above
T2 construct: the methods print '(37 °C, 10 min)' after the complex

[4] = molecular target: T1, recombinant human integrin α5β1; test: as above

T1 sequence (P08648 42-995, chain 1 of 2): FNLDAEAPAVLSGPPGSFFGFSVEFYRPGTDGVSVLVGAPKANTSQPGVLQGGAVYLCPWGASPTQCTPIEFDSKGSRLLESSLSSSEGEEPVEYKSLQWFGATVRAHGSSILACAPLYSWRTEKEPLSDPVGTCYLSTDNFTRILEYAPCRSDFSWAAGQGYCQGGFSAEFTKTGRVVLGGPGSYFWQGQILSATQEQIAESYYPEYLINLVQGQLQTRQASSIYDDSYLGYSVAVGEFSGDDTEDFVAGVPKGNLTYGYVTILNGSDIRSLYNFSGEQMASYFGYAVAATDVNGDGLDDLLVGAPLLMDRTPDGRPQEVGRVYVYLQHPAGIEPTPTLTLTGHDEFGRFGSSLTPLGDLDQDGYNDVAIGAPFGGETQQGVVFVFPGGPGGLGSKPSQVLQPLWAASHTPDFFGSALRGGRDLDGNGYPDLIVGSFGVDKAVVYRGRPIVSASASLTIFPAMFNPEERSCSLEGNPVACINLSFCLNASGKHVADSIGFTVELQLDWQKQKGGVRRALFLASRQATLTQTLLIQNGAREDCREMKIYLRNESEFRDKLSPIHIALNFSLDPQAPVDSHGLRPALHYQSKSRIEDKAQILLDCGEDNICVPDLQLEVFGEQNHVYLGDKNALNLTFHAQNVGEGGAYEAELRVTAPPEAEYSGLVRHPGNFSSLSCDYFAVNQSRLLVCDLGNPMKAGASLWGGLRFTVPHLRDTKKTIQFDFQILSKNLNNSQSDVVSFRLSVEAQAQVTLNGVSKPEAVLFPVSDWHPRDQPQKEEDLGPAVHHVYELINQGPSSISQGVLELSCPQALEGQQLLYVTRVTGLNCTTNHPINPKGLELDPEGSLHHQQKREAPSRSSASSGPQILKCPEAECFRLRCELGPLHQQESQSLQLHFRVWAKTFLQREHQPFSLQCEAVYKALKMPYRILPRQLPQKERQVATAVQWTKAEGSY
T1 sequence (P05556 21-728, chain 2 of 2): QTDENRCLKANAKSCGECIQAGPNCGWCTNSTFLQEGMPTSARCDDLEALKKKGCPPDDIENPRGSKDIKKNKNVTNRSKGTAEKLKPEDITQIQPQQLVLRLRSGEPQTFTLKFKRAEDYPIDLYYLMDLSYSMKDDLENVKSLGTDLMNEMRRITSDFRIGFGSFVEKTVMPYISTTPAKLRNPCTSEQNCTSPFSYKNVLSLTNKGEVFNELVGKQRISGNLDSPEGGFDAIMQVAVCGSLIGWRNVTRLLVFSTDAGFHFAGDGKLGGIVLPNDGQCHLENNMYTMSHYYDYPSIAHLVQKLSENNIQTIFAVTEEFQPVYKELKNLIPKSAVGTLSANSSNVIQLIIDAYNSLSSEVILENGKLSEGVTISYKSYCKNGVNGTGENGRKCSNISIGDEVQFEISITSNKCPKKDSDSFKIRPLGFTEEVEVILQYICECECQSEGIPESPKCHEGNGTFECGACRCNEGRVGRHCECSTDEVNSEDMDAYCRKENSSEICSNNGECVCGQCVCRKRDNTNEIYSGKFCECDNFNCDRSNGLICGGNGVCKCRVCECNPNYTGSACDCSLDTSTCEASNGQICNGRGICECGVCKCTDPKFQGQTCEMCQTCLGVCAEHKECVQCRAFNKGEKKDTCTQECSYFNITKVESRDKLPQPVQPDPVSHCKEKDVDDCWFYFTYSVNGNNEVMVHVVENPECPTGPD
T2 sequence (P05121 24-402, chain 1 of 2, other chains not shown): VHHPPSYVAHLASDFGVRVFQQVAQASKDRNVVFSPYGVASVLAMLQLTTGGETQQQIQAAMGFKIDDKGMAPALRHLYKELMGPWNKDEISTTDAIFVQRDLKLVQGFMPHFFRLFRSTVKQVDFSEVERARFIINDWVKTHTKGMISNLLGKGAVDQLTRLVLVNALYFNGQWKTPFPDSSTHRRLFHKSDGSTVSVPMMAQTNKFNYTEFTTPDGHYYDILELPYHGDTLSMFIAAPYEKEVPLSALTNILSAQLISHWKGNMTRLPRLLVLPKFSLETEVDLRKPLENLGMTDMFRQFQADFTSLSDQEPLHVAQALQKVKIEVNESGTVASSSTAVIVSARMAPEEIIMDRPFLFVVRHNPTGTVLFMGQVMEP
plasminogen activator inhibitor-1 (PAI-1), immobilised on ELISA plates, sequence (P05121 24-402): as the sequence (P05121 24-402, chain 1 of 2, other chains not shown) above

Kd [1]: 2740 nM
B1: biotinylated peptide comprising residues 45 to 51 of vasoinhibin (B-Vi45-51) (peptide, UniProt P01236 73-79, looked up)
peptide: THGRGFI
modifications: also: biotin, position not given here
notes: vasoinhibin (fragment of prolactin), residues 45 to 51, holds the HGR motif (H46, R48 printed); also called biotinylated Vi45-51; source: synthetic peptide, bought: GenScript

Kd [2]: 528 nM | Kd [3]: 406 nM | Kd [4]: 383 nM
B2: vasoinhibin (Vi) (domain or fragment, UniProt P01236 29-151, looked up)
chain: LPICPGGAARCQVTLRDLFDRAVVLSHYIHNLSSEMFSEFDKRYTHGRGFITKAINSCHTSSLATPEDKEQAQQMNQKDFLSLIVSILRSWNEPLYHLVTEVRGMQEAPEAILSKAVEIEEQT
notes: vasoinhibin, a fragment of the hormone prolactin; also called 16K prolactin
